Results from US20200199244A1 (published 2020).
Positions count from the first letter of the chain named.

Molecular target: human CD40 (human, UniProt P25942 21-277)
Test: cell-based or functional assay

Chain of human CD40 (P25942 21-277 limits assumed): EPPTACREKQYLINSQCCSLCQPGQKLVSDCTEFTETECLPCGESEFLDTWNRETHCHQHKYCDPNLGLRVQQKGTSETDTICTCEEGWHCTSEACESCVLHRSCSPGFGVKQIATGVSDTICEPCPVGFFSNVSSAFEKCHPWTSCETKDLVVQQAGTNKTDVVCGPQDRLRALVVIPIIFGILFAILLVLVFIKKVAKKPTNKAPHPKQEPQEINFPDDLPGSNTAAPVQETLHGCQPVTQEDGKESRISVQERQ

B1: BMS3h-131-6 (other)
VL: DIQMTVSPSSLSASVGDRVTITCRANSSILWALAWYQQKPGKAPKLLIESSSGLQSGVPSRFSGSGSGTDFTLTISSLQPEDFATYYCVQNAVWPGTFGQGTKVEIKR
  hIZCD40L-driven Human B Cell Proliferation EC50: 141 nM

B2: BMS3h-131-14 (other)
VL: B1 VL with V6Q, S67T, S77G, G99D
  hIZCD40L-driven Human B Cell Proliferation EC50: 24 nM

B3: BMS3h-61 (other)
VH: EVQLLESGGGLVQPGGSLRLSCAASGFTFGTTEMAWVRQAPGKGLEWVSSIGSAGAWTYYADSVKGRFTISRDNSKNTLYLQMNSLRAEDTAVYYCAKIGGHPQGQFDYWGQGTLVTVSS
  CHO-hCD40L-driven Human B Cell Proliferation EC50: > 7000 nM
  hIZCD40L-driven Human B Cell Proliferation EC50: > 7000 nM

B4: BMS3h-37-1 (other)
VH: EVQLLESGGGLVQPGGSLRLSCAASGFTFEWYEMQWVRQAPGKGLEWVSAISGDGYRTYYADSVKGRFTISRDNSMNTLYLQMNSLRAEDTAVYYCAKELGYFDYRGRGTLVTVSS
  hIZCD40L-driven Human B Cell Proliferation EC50: 250 nM

B5: BMS3h-37-202 (other)
VH: B4 VH with Q39R, Y56W, M76K, R106W
  CHO-hCD40L-driven DC Activation IL-12 EC50: 10 nM
  T-B cell MLR EC50: 83 nM
  hIZCD40L-driven Human B Cell Proliferation EC50: 0.6 nM

B6: BMS3h-37-205 (other)
VH: B4 VH with Q39R, M76K, G101E, R106W
  CHO-hCD40L-driven DC Activation IL-12 EC50: 6.6 nM
  hIZCD40L-driven Human B Cell Proliferation EC50: 2 nM

B7: BMS3h-37-206 (other)
VH: B4 VH with Q39R, M76K, E99G, G101E, R106W
  CHO-hCD40L-driven DC Activation IL-12 EC50: 23 nM
  hIZCD40L-driven Human B Cell Proliferation EC50: 5 nM

B8: BMS3h-37-213 (other)
VH: B4 VH with Q39R, M76K, G101L, Y102F
  hIZCD40L-driven Human B Cell Proliferation EC50: 0.7 nM

B9: BMS3h-37-207 (other)
VH: B4 VH with Q39R, M76K, G101A, Y102F, R106W
  CHO-hCD40L-driven DC Activation IL-12 EC50: 15.5 nM
  hIZCD40L-driven Human B Cell Proliferation EC50: 4 nM

B10: BMS3h-37-11 (other)
VH: B4 VH with Q39K, M76K
  hIZCD40L-driven Human B Cell Proliferation EC50: 8 nM

B11: BMS3h-37-212 (other)
VH: B4 VH with Q13R, Q39R, M76K, G101E, Y102F, R106W
  hIZCD40L-driven Human B Cell Proliferation EC50: 1 nM

B12: BMS3h-28 (other)
VH: EVQLLESGGGLVQPGGSLRLSCAASGFTFGDVPMSWVRQAPGKGLEWVSRIDPYGSNTYYADSVKGRFTISRDNSKNTLYLQMNSLRAEDTAVYYCAKGIMPSLTFDYWGQGTLVTVSS
  CHO-hCD40L-driven Human B Cell Proliferation EC50: > 7000 nM
  hIZCD40L-driven Human B Cell Proliferation EC50: > 7000 nM

B13: BMS3h-33 (other)
VH: EVQLLESGGGLVQPGGSLRLSCAASGFTFLSYPMHWVRQAPGKGLEWVSSIDSRGSVTYYADSVKGRFTISRDNSKNTLYLQMNSLRAEDTAVYYCAKGHSWTFDYWGQGTLVTVSS
  CHO-hCD40L-driven Human B Cell Proliferation EC50: > 7000 nM
  hIZCD40L-driven Human B Cell Proliferation EC50: > 7000 nM

B14: BMS3h-52 (other)
VH: EVQLLESGGGLVQPGESLRLSCAASGFTFSAYDMTWVRQAPGKGLEWVSRINPTGSYTYYADSVKGRFTISRDNSKNTLYLQMNSLRAEDTAVYYCAKAKIPNLVFDYWGQGTLVTVSS
  CHO-hCD40L-driven Human B Cell Proliferation EC50: > 7000 nM
  hIZCD40L-driven Human B Cell Proliferation EC50: > 7000 nM

B15: BMS3h-57 (other)
VH: EVQLLESGGGLVQPGGSLRLSCAASGFTFSHEDMTWVRQAPGKGLEWVSSISPNGWDTYYADSVKGRFTISRDNSKNTLYLQMNSLRAEDTAVYYCAKRTRSKFDYWGQGTLVTVSS
  CHO-hCD40L-driven Human B Cell Proliferation EC50: > 7000 nM
  hIZCD40L-driven Human B Cell Proliferation EC50: > 7000 nM

B16: BMS3h-208 (other)
VH: B15 VH with S30P, H31E, E32S, T35K, R99P, T100A, R101Q, S102V, K103L
  hIZCD40L-driven Human B Cell Proliferation EC50: > 7000 nM

B17: BMS3h-48 (other)
VH: EVQLLESGGGLVQPGGSLRLSCAASGFTFADHGMTWVRQAPGKGLEWVSGIGPSGEATYYADSVKGRFTISRDNSKNTLYLQMNSLRAEDTAVYYCAKDRIPNLVFDYWGQGTLVTVSS
  CHO-hCD40L-driven Human B Cell Proliferation EC50: > 7000 nM
  hIZCD40L-driven Human B Cell Proliferation EC50: > 7000 nM

B18: BMS3h-38-1 (other)
VH: EVQLLGSGGGLVQPGGSLRLSCAASGFTFEEEEMIWVRQAPGKGLEWVSAISGSGGSTYYADSVKGRFTISRDNSKNTLYLQMNSLRAEDTAVYYCSKEPFRFDYWGQGTLVTVSS
  hIZCD40L-driven Human B Cell Proliferation EC50: 142 nM

B19: BMS3h-102 (other)
VH: EVQLLESGGGLVQPGGSLRLSCAASGFTFSEAEMNWVRQAPGKGLEWVSRITTDGDSTYYADSVKGRFTISRDNSKNTLYLQMNSLRAEDTAVYYCAKGRIPTLHFDYWGQGTLVTVSS
  hIZCD40L-driven Human B Cell Proliferation EC50: > 7000 nM

B20: BMS3h-8 (other)
VH: EVQLLESGGGLVQPGGSLRLSCAASGFTFPSEEMSWVRQAPGKGLEWVSRISADGANTYYADSVKGRFTISRDNSKNTLYLQMNSLRAEDAAVYYCAKGRVPDLLFDYWGQGTLVTVSS
  CHO-hCD40L-driven Human B Cell Proliferation EC50: > 7000 nM
  hIZCD40L-driven Human B Cell Proliferation EC50: > 7000 nM

B21: BMS3h-88 (other)
VH: EVQLLESGGGLVQPGGSLRLSCAASGFTFHETEMTWVRQAPGKGLEWVSAINRLGQDTYYADSVKGRFTISRDNSKNTLYLQMNSLRAEDTAVYYCAKGRIPGLVFDYWGQGTLVTVSS
  hIZCD40L-driven Human B Cell Proliferation EC50: > 7000 nM

B22: BMS3h-207 (other)
VH: EVQLLESGGGLVQPGGSLRLSCAASGFTFSNQDMTWVRQAPGKGLEWVSSIDSSGQLTYYADSVKGRFTISRDNSKNTLYLQMNSLRAEDTAVYYCAKVKSLARFDYWGQGTLVTVSS
  hIZCD40L-driven Human B Cell Proliferation EC50: > 7000 nM

B23: BMS3h-193 (other)
VL: DIQMTQSPSSLSASVGDRVTITCRASQTIERRLNWYQQKPGKAPKLLIYLASRLQSGVPSRFSGSGSGTDFTLTISSLQPEDFATYYCHQYASPPLTFGQGTKVEIKR
  hIZCD40L-driven Human B Cell Proliferation EC50: > 7000 nM

B24: BMS3h-193-19 (other)
VL: B23 VL with D70E, A92E
  hIZCD40L-driven Human B Cell Proliferation EC50: 233 nM

B25: BMS3h-193-12 (other)
VL: B23 VL with A92E
  hIZCD40L-driven Human B Cell Proliferation EC50: 277 nM

B26: BMS3h-193-16 (other)
VL: B23 VL with T28A, F98L
  hIZCD40L-driven Human B Cell Proliferation EC50: 387 nM

B27: BMS3h-112 (other)
VH: EVQLLESGGGLVQPGGSLRLSCAASGFTFGESDMKWVRQAPGKGLEWVSSISPNGWDTYYADSVKGRFTISRDNSKNTLYLQMNSLRAEDTAVYYCAKSPSSRLKFDYWGQGTLVTVSS
  hIZCD40L-driven Human B Cell Proliferation EC50: > 7000 nM
